Experimental findings from PMC7188244 are described below.

Test [1] has as its target HA-tagged SQSTM1-NUP214^FGmut fusion protein (human) (UniProt P35658). As to the kind of experiment: co-IP; nuclear lysates of stably transduced MEFs; anti-HA antibody overnight at 4°C, Protein G Dynabeads; washes with 150 and 175 mM NaCl buffer; immunoblot with anti-Crm1 and anti-HA, Crm1 signal/HA signal quantified on LI-COR Odyssey; cells untreated or treated with LMB (10 nM, 2 hours). For orientation: In western blotting, separated proteins are transferred to a membrane and probed.

Test [2] addresses HA-tagged SQSTM1-NUP214 fusion protein (human) (UniProt P35658). The test is described as above.

Take “Crm1 (chromosome region maintenance 1) (from UniProt Q6P5F9 1-1071) (natural protein)”: the percent reduction of Crm1 binding against SQSTM1-NUP214 in test [1] was over 50%. Also, the percent reduction of Crm1 binding by LMB (10 nM, 2 hours) in test [2] is 58%.

“Crm1 (chromosome region maintenance 1) (from UniProt Q6P5F9 1-1071)” had a percent reduction of Crm1 binding by LMB (10 nM, 2 hours) in test [1] of 52%.
